Results reported in PMC11352979, “The mycobacterium lipid transporter MmpL3 is dimeric in detergent solution, SMALPs and reconstituted nanodiscs†” (RSC Chemical Biology, 2024).

Legend:
[1] = target: T1, C-terminally truncated Mycobacterium smegmatis MmpL3 (ΔC Ms-MmpL3, aa 1–773) (M. smegmatis), A0QP27; test: AUC; sedimentation velocity of the SEC peaks of protein in SMALPs; 0.1-0.5 mg/mL, 20 mM Tris HCl, 150 mM NaCl, pH 8.0, 20 °C; c(s) distribution; the mass includes lipid and polymer; settings: remark: other sources report otherwise
T1 chain: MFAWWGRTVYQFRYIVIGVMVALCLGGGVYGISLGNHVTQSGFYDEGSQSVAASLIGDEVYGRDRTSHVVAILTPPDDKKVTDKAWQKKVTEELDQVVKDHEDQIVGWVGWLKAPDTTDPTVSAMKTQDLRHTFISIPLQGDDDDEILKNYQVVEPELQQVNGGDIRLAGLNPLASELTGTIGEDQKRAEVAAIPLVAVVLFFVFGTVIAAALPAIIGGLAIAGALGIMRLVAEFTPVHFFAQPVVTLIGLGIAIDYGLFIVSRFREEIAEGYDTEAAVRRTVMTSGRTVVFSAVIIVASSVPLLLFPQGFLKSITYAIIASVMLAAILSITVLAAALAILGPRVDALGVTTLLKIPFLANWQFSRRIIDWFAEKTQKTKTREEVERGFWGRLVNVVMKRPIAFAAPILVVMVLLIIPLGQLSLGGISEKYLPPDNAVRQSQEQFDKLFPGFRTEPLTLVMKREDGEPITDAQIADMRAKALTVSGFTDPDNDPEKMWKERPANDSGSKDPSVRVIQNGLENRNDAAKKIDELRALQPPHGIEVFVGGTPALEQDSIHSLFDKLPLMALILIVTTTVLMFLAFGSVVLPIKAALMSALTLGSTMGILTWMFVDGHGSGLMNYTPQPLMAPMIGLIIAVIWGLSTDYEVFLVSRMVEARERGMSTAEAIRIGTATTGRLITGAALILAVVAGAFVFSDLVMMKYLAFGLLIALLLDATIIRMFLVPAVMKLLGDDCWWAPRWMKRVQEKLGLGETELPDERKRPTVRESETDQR

[2] = target: T1, C-terminally truncated Mycobacterium …; test: native MS; LILBID-MS of the high sucrose percentage (HSP, 16-18% sucrose) fraction of POPC/MSP1E3D1 nanodiscs; 20 mM Tris HCl pH 8.0; negative mode; low and high laser energies; settings: remark: other sources report otherwise

B1: C-terminally truncated Mycobacterium smegmatis MmpL3 (ΔC Ms-MmpL3, aa 1–773), A0QP27 1-773 (domain or fragment)
chain: MFAWWGRTVYQFRYIVIGVMVALCLGGGVYGISLGNHVTQSGFYDEGSQSVAASLIGDEVYGRDRTSHVVAILTPPDDKKVTDKAWQKKVTEELDQVVKDHEDQIVGWVGWLKAPDTTDPTVSAMKTQDLRHTFISIPLQGDDDDEILKNYQVVEPELQQVNGGDIRLAGLNPLASELTGTIGEDQKRAEVAAIPLVAVVLFFVFGTVIAAALPAIIGGLAIAGALGIMRLVAEFTPVHFFAQPVVTLIGLGIAIDYGLFIVSRFREEIAEGYDTEAAVRRTVMTSGRTVVFSAVIIVASSVPLLLFPQGFLKSITYAIIASVMLAAILSITVLAAALAILGPRVDALGVTTLLKIPFLANWQFSRRIIDWFAEKTQKTKTREEVERGFWGRLVNVVMKRPIAFAAPILVVMVLLIIPLGQLSLGGISEKYLPPDNAVRQSQEQFDKLFPGFRTEPLTLVMKREDGEPITDAQIADMRAKALTVSGFTDPDNDPEKMWKERPANDSGSKDPSVRVIQNGLENRNDAAKKIDELRALQPPHGIEVFVGGTPALEQDSIHSLFDKLPLMALILIVTTTVLMFLAFGSVVLPIKAALMSALTLGSTMGILTWMFVDGHGSGLMNYTPQPLMAPMIGLIIAVIWGLSTDYEVFLVSRMVEARERGMSTAEAIRIGTATTGRLITGAALILAVVAGAFVFSDLVMMKYLAFGLLIALLLDATIIRMFLVPAVMKLLGDDCWWAPRWMKRVQEKLGLGETELPDERKRPTVRESETDQR
B1 was tested. Which stoichiometry N [1] did it give?
Its stoichiometry N is 2.

And the stoichiometry N [2]?
Its stoichiometry N is 2.
